Measurements from publication PMC9943647, “Structures of pMV158 replication initiator RepB with and without DNA reveal a flexible dual-function protein” (Nucleic Acids Research, 2023).

Legend:
[1] = molecular target: the molecule itself; experiment: crystal structure; full-length RepB without DNA; hanging drop, 100 mM Na/K phosphate pH 6.2, 200 mM NaCl, 10% PEG 8000; space group P21, 2.77 A
[2] = molecular target: T1, RepB OBD (origin binding domain), wt (Streptococcus plasmid pMV158, UniProt P13921 1-131); experiment: EMSA; EMSA: 20 mM Tris-HCl pH 8.0, 5 mM DTT, 300 mM NaCl, 20 nM DNA, 20 min 25 C; footprinting same buffer; SPR: 10 mM HEPES pH 7.4, 150 mM NaCl, 3 mM EDTA, 0.005% P20; conditions: protein: recombinant; tags: none; label: 5'-Cy5 (top); blunt
T1 sequence: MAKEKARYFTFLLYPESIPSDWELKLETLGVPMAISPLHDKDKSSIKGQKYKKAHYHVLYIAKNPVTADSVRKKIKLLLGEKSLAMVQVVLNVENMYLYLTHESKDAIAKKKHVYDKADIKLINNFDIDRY

[3] = molecular target: OBD quadruple mutant (Streptococcus plasmid pMV158, UniProt P13921 1-131, R72A;K73A;K74A;K76A); experiment: as above; conditions: protein: recombinant; label: 5'-Cy5 (top); blunt
[4] = molecular target: OBD K76A (Streptococcus plasmid pMV158, UniProt P13921 1-131, K76A); experiment: as above; conditions: protein: recombinant; label: 5'-Cy5 (top); blunt
[5] = molecular target: OBD K5A (Streptococcus plasmid pMV158, UniProt P13921 1-131, K5A); experiment: as above; conditions: protein: recombinant; label: 5'-Cy5 (top); blunt
[6] = molecular target: OBD E4A (Streptococcus plasmid pMV158, UniProt P13921 1-131, E4A); experiment: as above; conditions: protein: recombinant; label: 5'-Cy5 (top); blunt
[7] = molecular target: OBD R72A (Streptococcus plasmid pMV158, UniProt P13921 1-131, R72A); experiment: as above; conditions: protein: recombinant; label: 5'-Cy5 (top); blunt
[8] = molecular target: OBD triple mutant (Streptococcus plasmid pMV158, UniProt P13921 1-131, K3A;E4A;K5A); experiment: as above; conditions: protein: recombinant; label: 5'-Cy5 (top); blunt
[9] = molecular target: T1, RepB OBD (origin binding domain), wt; experiment: SPR; HBS-EP pH 7.4, 150 mM NaCl; Results text names 1DDR, but Methods, Table S1 and Fig 3 legend name DDRC; EMSA: 20 mM Tris-HCl pH 8.0, 5 mM DTT, 300 mM NaCl, 20 nM DNA, 20 min 25 C; footprinting same buffer; SPR: 10 mM HEPES pH 7.4, 150 mM NaCl, 3 mM EDTA, 0.005% P20; conditions: protein: recombinant; tags: none; label: 5'-Cy5 (top) for EMSA; 5'-biotin for SPR; blunt
[10] = molecular target: T1, RepB OBD (origin binding domain), wt; experiment: EMSA; complex half-life <10 s; EMSA: 20 mM Tris-HCl pH 8.0, 5 mM DTT, 300 mM NaCl, 20 nM DNA, 20 min 25 C; footprinting same buffer; SPR: 10 mM HEPES pH 7.4, 150 mM NaCl, 3 mM EDTA, 0.005% P20; conditions: protein: recombinant; tags: none; label: 5'-Cy5 (top) for EMSA; 5'-biotin for SPR; blunt
[11] = molecular target: T1, RepB OBD (origin binding domain), wt; experiment: SPR; HBS-EP pH 7.4, 150 mM NaCl; specific DNA is 1DDR in text, DDRC in Fig 3; EMSA: 20 mM Tris-HCl pH 8.0, 5 mM DTT, 300 mM NaCl, 20 nM DNA, 20 min 25 C; footprinting same buffer; SPR: 10 mM HEPES pH 7.4, 150 mM NaCl, 3 mM EDTA, 0.005% P20; conditions: protein: recombinant; tags: none; label: 5'-Cy5 (top) for EMSA; 5'-biotin for SPR; blunt
[12] = molecular target: T1, RepB OBD (origin binding domain), wt; experiment: EMSA; per DDR site, independent binding, complexes C1-C3; Kd ~0.8 uM; EMSA: 20 mM Tris-HCl pH 8.0, 5 mM DTT, 300 mM NaCl, 20 nM DNA, 20 min 25 C; footprinting same buffer; SPR: 10 mM HEPES pH 7.4, 150 mM NaCl, 3 mM EDTA, 0.005% P20; conditions: protein: recombinant; tags: none; label: 5'-Cy5 (top) for EMSA; 32P at both 5' ends for footprinting; blunt

B1: RepB, replication initiation protein of plasmid pMV158 (full-length hexamer) (natural protein, streptococcal plasmid pMV158, UniProt P13921 1-210, looked up)
chain: MAKEKARYFTFLLYPESIPSDWELKLETLGVPMAISPLHDKDKSSIKGQKYKKAHYHVLYIAKNPVTADSVRKKIKLLLGEKSLAMVQVVLNVENMYLYLTHESKDAIAKKKHVYDKADIKLINNFDIDRYVTLDVEEKTELFNVVVSLIRAYTLQNIFDLYDFIDENGETYGLTINLVNEVIAGKTGFMKLLFDGAYQRSKRGTKNEER
notes: RepB, replication initiator (HUH endonuclease) of the streptococcal plasmid pMV158; Crystallised without DNA; a phosphate sits in each active site instead of Mn2+; also called RepB6; full-length RepB
- stoichiometry N [1]: 6

B2: 1DDR (dsDNA)
DNA 1: AATCTCGGCGACTTTTTAGA
DNA 2: TCTAAAAAGTCGCCGAGATT
- Kd [2]: 1100 ± 100 nM
- binding result [3]: no binding
- Kd [4]: 5500 ± 700 nM
- Kd [5]: 1800 ± 200 nM
- Kd [6]: 600 ± 100 nM
- Kd [7]: 1700 ± 200 nM
- Kd [8]: 1100 ± 100 nM

B3: DDRC (dsDNA)
DNA 1: CTTTTCGGCGACTTTTCGG
DNA 2: CCGAAAAGTCGCCGAAAAG
- Kd [9]: 220 ± 10 nM
- Kd [10]: ~1000 nM

B4: NS (dsDNA)
DNA 1: CGGGTCGGTAATTGGGTTT
DNA 2: AAACCCAATTACCGACCCG
- binding signal [11]: ~15 fold lower affinity than specific DNA

B5: DDRL (dsDNA)
DNA 1: AATCTCGGCGACTTTTCGG
DNA 2: CCGAAAAGTCGCCGAGATT
- Kd [2]: ~1000 nM

B6: DDRR (dsDNA)
DNA 1: CTTTTCGGCGACTTTTTAG
DNA 2: CTAAAAAGTCGCCGAAAAG
- Kd [2]: ~1000 nM

B7: 3DDR (dsDNA)
DNA 1: AATCTCGGCGACTTTTCGGCGACTTTTCGGCGACTTTTTAGA
DNA 2: TCTAAAAAGTCGCCGAAAAGTCGCCGAAAAGTCGCCGAGATT
- Ka [12]: 1.2 ± 0.4 µM⁻¹
